# From the supplement of paper PMC9732359
# ± gives the uncertainty stated by the source.
# Assay: protein stability index of a GFP-peptide fusion (yeast GPS) (PSI 1-4); higher = more stable; sorted into four equal gates, so the index is relative within each strain
# Outline: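 For each peptide, the protein stability index sums the read frequency in every gate after multiplying it by the gate number. Read frequencies came from plasmids that were PCR-amplified from each gate and Illumina-sequenced, with reads assigned to strains by barcodes. The gates were four equal bins of GFP/Cherry fluorescence ratio applied to mid-log yeast in leucine-free medium carrying a pooled library of tiled 17-residue yeast protein peptides fused downstream of GFP on a Cherry-expressing plasmid.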
Sequence,protein stability index (doa10∆),protein stability index (pdr5∆),protein stability index (san1∆),protein stability index (ubr1∆)
DMSKILVDQGFNYSGKD [RET1],3.36 ± 0.073,3.31 ± 0.065,3.31 ± 0.04,3.49 ± 0.042
GDLKLQVLLDEEYKQLV [RPO21],2.48 ± 0.12,2.94 ± 0.082,2.73 ± 0.11,3.2 ± 0.062
IGDKFASRHGQKGTIGI [RPB2],1.34 ± 0.07,1.96 ± 0.047,1.57 ± 0.16,1.1 ± 0.041
KNTLLERLKQLTPNEIK [SWP82],2.8 ± 0.063,2.81 ± 0.065,2.71 ± 0.046,2.68 ± 0.054
EQTVEYMVSRAIRDGVI [RPN3],3.47 ± 0.15,3.58 ± 0.1,2.64 ± 0.17,3.45 ± 0.049
VHLSNGYKMIPGAKPLQ [FAS1],1.74 ± 0.072,2.02 ± 0.076,1.8 ± 0.088,1.81 ± 0.05
SVAKIRFPETMDETQTR [RPO21],3.55 ± 0.073,3.34 ± 0.12,3.66 ± 0.063,3.59 ± 0.049
ESNDRINKIVEILTNQQ [YGR119C/NUP57],,2.77 ± 0.23,2.57 ± 0.13,2.23 ± 0.085
NRERFISKLFLRGDSVI [SMD2],2.91 ± 0.076,1.65 ± 0.089,1.51 ± 0.14,3.03 ± 0.15
ISLPKGKGIKLSIAEER [RPS4A],2.03 ± 0.15,2.18 ± 0.28,2.62 ± 0.081,2.47 ± 0.077
VQLLLHINSILLARVIQ [SNF11],1.84 ± 0.12,1.27 ± 0.076,,1.47 ± 0.087
LLRSRLATRRVLQEYRL [RPO21],2.62 ± 0.067,2.07 ± 0.083,2.27 ± 0.11,1.63 ± 0.072
TSPEKKDGGDKPPSSAF [YAR002W/NUP60],3.42 ± 0.13,3.34 ± 0.075,3.3 ± 0.081,3.72 ± 0.11
RKLEISSRFKHRQEIFK [GAL11],2.76 ± 0.064,3.1 ± 0.061,3.01 ± 0.059,3.09 ± 0.051
ISYKKGAASNRTKFVRS [RPL36A],3.06 ± 0.1,3.2 ± 0.1,3.13 ± 0.11,3.26 ± 0.22
LYQTYHVLVGDLIKFSA [FAS1],2.2 ± 0.05,2.43 ± 0.052,2.39 ± 0.044,2.31 ± 0.035
VMKQVETLVLDEADKMI [PRP28],,,3.42 ± 0.13,3.04 ± 0.12
SPAGKYKRQKSSLLYTY [ESC2],1.24 ± 0.056,1.39 ± 0.067,1.17 ± 0.11,1.16 ± 0.06
LGIALIALGEDIGKEMS [RPN1],3.01 ± 0.081,3.01 ± 0.091,2.9 ± 0.1,3.02 ± 0.06
KSQNTALPSTHKVTQKK [SIR4],2.6 ± 0.061,2.9 ± 0.061,2.79 ± 0.071,3.01 ± 0.05
SNIMSDSKKIKVDSPDD [GAL11],2.9 ± 0.078,2.73 ± 0.079,3.03 ± 0.072,2.88 ± 0.061
HARARGPRAVLTRQPTE [RET1],3.28 ± 0.11,3.31 ± 0.068,3.08 ± 0.065,3.26 ± 0.06
LAKSGSTEETTANTGTI [TAF14],2.61 ± 0.08,2.27 ± 0.089,2.19 ± 0.14,2.39 ± 0.091
PAELEGLLDLERVIVVT [FAS2],2.38 ± 0.1,2.11 ± 0.064,1.78 ± 0.17,1.77 ± 0.11
PALLRPGRLDRKIEFPS [RPT3],3.2 ± 0.11,3.08 ± 0.11,3.07 ± 0.11,3 ± 0.066
ISQKLHDSILHSRILPK [RRP43],2.57 ± 0.046,2.58 ± 0.033,2.62 ± 0.037,2.8 ± 0.038
SQIIPLMKKACYVGLLT [SNU114],1.67 ± 0.049,1.82 ± 0.06,1.75 ± 0.07,1.83 ± 0.043

Sequence,protein stability index (doa10∆),protein stability index (pdr5∆),protein stability index (san1∆),protein stability index (ubr1∆)
KAVKLRKSYKNQIADLS [ROX3],2.74 ± 0.1,2.85 ± 0.07,2.77 ± 0.095,2.95 ± 0.037
SPMINSTSSGKVSYAVK [SNM1],2.6 ± 0.11,3.11 ± 0.065,2.32 ± 0.097,2.93 ± 0.056
GVDNLRRMGILKKILDQ [RPO31],2.48 ± 0.1,2.7 ± 0.11,2.4 ± 0.083,2.96 ± 0.04
TCILHGPVAAQFTKVID [FAS1],1.73 ± 0.064,2.25 ± 0.048,1.94 ± 0.081,1.98 ± 0.047
SSKYAYMMNSQSPRGKI [YLR018C/POM34],2.83 ± 0.062,2.69 ± 0.065,2.75 ± 0.044,2.78 ± 0.038
LDAIDDFIQLKQTAAYR [SSN2],,,,3.23 ± 0.22
SYVAVLGMGKAVEKTLA [POP7],1.75 ± 0.13,2.17 ± 0.081,1.82 ± 0.11,1.61 ± 0.086
IVFDNTDKSNSPIGFTN [SMC2],3.1 ± 0.049,3.15 ± 0.063,3.15 ± 0.052,2.96 ± 0.068
NRRGMLALSGTSASNTS [SNF5],3.02 ± 0.064,3.1 ± 0.064,2.86 ± 0.064,2.92 ± 0.066
ANLMLVMLRLLLVVIFK [SRB4],1.49 ± 0.045,1.51 ± 0.047,1.24 ± 0.088,1.46 ± 0.034
NSKDHKKITLQLLDTSN [SIN4],3.07 ± 0.07,3.39 ± 0.078,3.04 ± 0.074,2.96 ± 0.053
FDENIARDIISHNFQNA [PCI8],2.74 ± 0.053,2.77 ± 0.046,2.67 ± 0.043,2.77 ± 0.039
EASKKSAVKPRPLKLER [FAS1],3.1 ± 0.15,3.16 ± 0.13,2.88 ± 0.17,3.05 ± 0.11
FTKKPVTPNDKIPEREE [SIR4],3.05 ± 0.13,2.95 ± 0.087,3.27 ± 0.13,3.1 ± 0.063
NLFPLKPKMLPIPSKPT [SRP68],2.38 ± 0.11,2.55 ± 0.093,2.43 ± 0.16,2.61 ± 0.081
GRRWNELRRFESSINTH [SKI6],,2.66 ± 0.12,2.01 ± 0.13,2.41 ± 0.13
VNDVEELGEIIDEDIGN [RMP1],3.41 ± 0.15,,2.98 ± 0.2,3.19 ± 0.28
RMLSFEDISKATHLPKD [RPN9],2.95 ± 0.091,3.08 ± 0.08,3.15 ± 0.096,3.02 ± 0.055
GVYSDDELLSQLDLCKL [SRP68],3.09 ± 0.063,3.21 ± 0.053,3.23 ± 0.043,3.15 ± 0.068
IKDLQRAINKVLCTRLR [SIR2],1.78 ± 0.063,1.33 ± 0.06,1.18 ± 0.11,1.54 ± 0.045
EPGVLNTGDGSISTYKD [ECM29],3.28 ± 0.15,3.22 ± 0.15,,
YEQHIENIEPLDPINLP [PRP8],2.38 ± 0.11,2.9 ± 0.091,2.5 ± 0.1,2.8 ± 0.071
ERHQKQLNEKLVGRLRK [YCS4],3.19 ± 0.12,3.18 ± 0.11,3.02 ± 0.06,3 ± 0.065
MASNEVLVLRGTLEGHN [ASC1],3.06 ± 0.17,2.22 ± 0.16,3.24 ± 0.13,3.16 ± 0.25
GLRVRGQHTKTTGRRRA [RPS18A],2.09 ± 0.052,2.33 ± 0.066,2.21 ± 0.068,2.54 ± 0.037
MSSTTPKLESVKWQYDP [SNF12],3.16 ± 0.065,3.25 ± 0.066,3.09 ± 0.048,3.39 ± 0.062
ESGKVFIGRLPIMLRSK [RPB2],2.83 ± 0.1,2.67 ± 0.062,2.94 ± 0.08,2.79 ± 0.058
